# T1: IFNAR1, endogenous in A375 melanoma cells (human, UniProt P17181 28-557, poly-LacNAc glycosylation added by B3GNT2 (sites not given))
# T1 construct: whole, on cells; In the co-IP it comes from the lysate of A375 cells; also called IFNARI
# T1 sequence (looked up): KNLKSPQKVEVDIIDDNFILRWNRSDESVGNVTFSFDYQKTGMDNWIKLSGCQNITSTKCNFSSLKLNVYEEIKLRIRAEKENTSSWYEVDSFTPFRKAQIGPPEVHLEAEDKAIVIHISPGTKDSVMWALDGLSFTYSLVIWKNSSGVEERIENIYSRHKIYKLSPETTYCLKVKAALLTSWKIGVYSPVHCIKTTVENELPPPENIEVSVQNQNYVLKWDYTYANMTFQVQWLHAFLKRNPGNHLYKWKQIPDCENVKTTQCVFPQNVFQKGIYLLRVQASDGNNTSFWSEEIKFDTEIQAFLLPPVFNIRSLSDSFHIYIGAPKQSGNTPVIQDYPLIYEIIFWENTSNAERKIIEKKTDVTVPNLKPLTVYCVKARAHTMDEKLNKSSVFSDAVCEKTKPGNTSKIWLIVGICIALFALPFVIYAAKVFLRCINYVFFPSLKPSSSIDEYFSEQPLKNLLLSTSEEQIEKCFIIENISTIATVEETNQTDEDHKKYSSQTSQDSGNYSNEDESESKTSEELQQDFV
# T2: CD276, endogenous in A375 melanoma cells (human, UniProt Q5ZPR3 29-534, poly-LacNAc glycosylation added by B3GNT2 (sites not given))
# T2 construct: whole, on cells; On fixed A375 cells in flow cytometry; In the co-IP it comes from the lysate of these cells; also called B7H3
# T2 sequence (looked up): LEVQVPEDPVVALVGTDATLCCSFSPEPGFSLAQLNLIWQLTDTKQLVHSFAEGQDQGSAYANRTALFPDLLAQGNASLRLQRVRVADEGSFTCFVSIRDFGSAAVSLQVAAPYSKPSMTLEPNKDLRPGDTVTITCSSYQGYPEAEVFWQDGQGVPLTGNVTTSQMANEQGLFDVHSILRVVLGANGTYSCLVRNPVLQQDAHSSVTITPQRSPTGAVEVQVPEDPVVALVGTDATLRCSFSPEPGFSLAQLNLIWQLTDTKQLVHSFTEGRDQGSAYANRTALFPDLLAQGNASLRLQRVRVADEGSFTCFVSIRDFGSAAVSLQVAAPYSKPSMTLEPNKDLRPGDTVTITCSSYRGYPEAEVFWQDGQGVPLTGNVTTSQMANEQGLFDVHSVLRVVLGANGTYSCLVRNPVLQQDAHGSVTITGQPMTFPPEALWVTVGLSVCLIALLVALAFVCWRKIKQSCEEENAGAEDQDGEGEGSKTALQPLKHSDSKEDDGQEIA
# T3: TNFRSF1A, endogenous in A375 melanoma cells (human, UniProt P19438 30-455, poly-LacNAc glycosylation added by B3GNT2 (sites not given))
# T3 construct: whole, on cells; In the co-IP it comes from the lysate of A375 cells
# T3 sequence (looked up): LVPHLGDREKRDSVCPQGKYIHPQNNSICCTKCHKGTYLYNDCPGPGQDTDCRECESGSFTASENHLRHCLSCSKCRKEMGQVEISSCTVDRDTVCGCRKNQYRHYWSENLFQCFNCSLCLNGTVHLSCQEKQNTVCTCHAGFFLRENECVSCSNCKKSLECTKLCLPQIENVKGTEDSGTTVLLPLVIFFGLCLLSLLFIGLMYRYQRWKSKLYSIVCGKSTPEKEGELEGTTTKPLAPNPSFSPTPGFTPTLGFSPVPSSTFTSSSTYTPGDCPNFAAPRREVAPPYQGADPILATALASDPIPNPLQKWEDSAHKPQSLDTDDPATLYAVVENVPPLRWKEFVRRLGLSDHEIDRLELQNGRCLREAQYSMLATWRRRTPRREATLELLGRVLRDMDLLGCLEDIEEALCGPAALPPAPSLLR
# T4: MARS (human, UniProt P56192 1-900)
# T4 construct: also called NP_004981.2
# T4 sequence (looked up): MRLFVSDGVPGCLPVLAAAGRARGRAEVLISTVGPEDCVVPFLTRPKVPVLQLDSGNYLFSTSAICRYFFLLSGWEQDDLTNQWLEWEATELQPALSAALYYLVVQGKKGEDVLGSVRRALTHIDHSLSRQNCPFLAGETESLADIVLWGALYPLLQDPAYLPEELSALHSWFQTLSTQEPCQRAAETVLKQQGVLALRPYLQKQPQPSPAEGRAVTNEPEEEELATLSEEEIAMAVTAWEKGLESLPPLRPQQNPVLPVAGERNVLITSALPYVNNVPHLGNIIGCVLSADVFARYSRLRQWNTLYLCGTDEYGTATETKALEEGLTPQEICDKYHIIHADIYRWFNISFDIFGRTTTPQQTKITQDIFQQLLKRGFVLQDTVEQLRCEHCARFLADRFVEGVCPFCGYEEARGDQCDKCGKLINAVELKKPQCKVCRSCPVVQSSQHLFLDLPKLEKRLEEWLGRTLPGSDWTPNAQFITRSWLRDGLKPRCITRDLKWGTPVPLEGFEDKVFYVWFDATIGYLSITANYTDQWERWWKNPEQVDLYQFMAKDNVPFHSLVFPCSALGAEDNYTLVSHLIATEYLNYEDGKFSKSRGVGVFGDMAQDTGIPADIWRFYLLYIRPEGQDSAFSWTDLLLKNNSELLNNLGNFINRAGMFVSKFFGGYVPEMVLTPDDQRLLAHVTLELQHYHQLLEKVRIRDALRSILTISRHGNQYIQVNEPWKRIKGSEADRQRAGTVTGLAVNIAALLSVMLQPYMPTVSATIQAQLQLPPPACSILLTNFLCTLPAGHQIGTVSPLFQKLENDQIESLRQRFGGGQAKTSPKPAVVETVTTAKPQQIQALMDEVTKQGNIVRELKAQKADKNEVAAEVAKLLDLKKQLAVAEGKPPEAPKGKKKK
# T5: CD70 (human, UniProt P32970 1-193)
# T5 construct: also called NP_001243.1
# T5 sequence (looked up): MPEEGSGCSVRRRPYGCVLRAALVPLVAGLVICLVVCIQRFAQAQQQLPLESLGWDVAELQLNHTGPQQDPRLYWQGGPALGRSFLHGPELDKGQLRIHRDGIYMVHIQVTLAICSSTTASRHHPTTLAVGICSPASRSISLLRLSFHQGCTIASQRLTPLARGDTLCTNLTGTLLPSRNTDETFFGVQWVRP
# What was measured:
# [1] = target: T1, IFNAR1, endogenous in A375 melanoma …; assay: co-IP of FLAG tagged B3GNT2 from A375 lysate, Western blot
# Method: (§1) Cells were plated in 10-cm cell culture dishes and grown to 60-80% confluency. For each condition, two biological replicates were harvested for co-IP. Cells were washed with PBS and 4 mL of lysis buffer (20 mM HEPES, 1% Triton X-100, 150 mM NaCl, 1 mM EDTA, and 10% glycerol) containing protease inhibitor cocktail was added. Cells were scraped and lysate was incubated at 4° C. under rotary agitation for 1 h. Lysate was centrifuged at 14,000×g for 10 min at 4° C. Supernatant was transferred to a new tube and an aliquot was taken as the input. […] For Western blots, 10 μg/mL Chicken Anti-FLAG (Aves labs ET-DY100) and IgY control (R&D Systems AB-101-C) antibodies were biotinylated (Thermo Fisher Scientific 90407) and added to the respective conditions. Lysates with antibodies were incubated at 4° C. under rotary agitation overnight. For each mL of lysate, 50 μL of Pierce Protein A/G Magnetic Beads (Mass spectrometry; Thermo Fisher Scientific 88803) or Pierce Streptavidin Magnetic Beads (Western blot; Thermo Fisher Scientific 88817) was washed twice with lysis buffer. Lysates with antibodies were added to the beads and incubated at 4° C. under rotary agitation for 4 h. Beads were washed with lysis buffer 3 times and resuspended in lysis buffer for storage.
# [2] = target: T2, CD276, endogenous in A375 melanoma cells; assay: as above
# Method: as §1
# [3] = target: T3, TNFRSF1A, endogenous in A375 melanoma …; assay: as above
# Method: as §1
# MARS = target: T4, MARS; assay: co-IP with anti-FLAG, mass spectrometry; lysate of cells with C-FLAG B3GNT2
# Method: as §1
# (§2) Magnetic beads were resuspended in 100 mM Tris pH 7.8, reduced, alkylated and digested with trypsin at 37° ° C. overnight. This solution was subjected to solid phase extraction to concentrate the peptides and remove unwanted reagents followed by injection onto a Shimadzu HPLC with fraction collector. Eight fractions were collected and after concentration were injected on a Waters NanoAcquity HPLC equipped with a self-packed Aeris 3 μm C18 analytical column 0.075 mm by 20 cm, (Phenomenex). Peptides were eluted using standard reverse-phase gradients. The effluent from the column was analyzed using a Thermo Orbitrap Elite mass spectrometer (nanospray configuration) operated in a data dependent manner for 54 minutes. […]
# CD70 = target: T5, CD70; assay: as above
# Method: as §1, §2
# PSMD4 = target: T6, PSMD4 (human, UniProt P55036 1-377, limits assumed); assay: as above
# T6 construct: also called NP_001317621.1 (+1)
# T6 sequence (P55036 whole entry): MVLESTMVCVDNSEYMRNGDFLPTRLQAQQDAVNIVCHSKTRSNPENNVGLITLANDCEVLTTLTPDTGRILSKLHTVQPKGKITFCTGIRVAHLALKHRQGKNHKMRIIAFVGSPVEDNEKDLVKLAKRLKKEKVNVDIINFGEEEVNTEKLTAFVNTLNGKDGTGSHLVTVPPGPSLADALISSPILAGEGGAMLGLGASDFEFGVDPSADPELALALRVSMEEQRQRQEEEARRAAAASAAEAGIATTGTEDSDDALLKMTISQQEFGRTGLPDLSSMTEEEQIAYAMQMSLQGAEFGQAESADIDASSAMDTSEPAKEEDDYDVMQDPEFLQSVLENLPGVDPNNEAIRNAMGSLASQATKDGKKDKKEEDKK
# Method: as §1, §2
Binder,binding result [1],binding result [2],binding result [3],co-IP mass spectrometry count (MARS),co-IP mass spectrometry count (CD70),co-IP mass spectrometry count (PSMD4)
"FLAG tagged B3GNT2 (N- or C-terminal FLAG tag) (enzyme, human, UniProt Q9NY97 1-397, looked up, The text speaks of the co-IP of B3GNT2 without separating the N-FLAG and C-FLAG constructs, so both are held as one molecule; also called N-FLAG B3GNT2; C-FLAG B3GNT2; not shown: FLAG tag at the N- or the C-terminus) MSVGRRRIKLLGILMMANVFIYFIMEVSKSSSQEKNGKGEVIIPKEKFWKISTPPEAYWNREQEKLNRQYNPILSMLTNQTGEAGRLSNISHLNYCEPDLRVTSVVTGFNNLPDRFKDFLLYLRCRNYSLLIDQPDKCAKKPFLLLAIKSLTPHFARRQAIRESWGQESNAGNQTVVRVFLLGQTPPEDNHPDLSDMLKFESEKHQDILMWNYRDTFFNLSLKEVLFLRWVSTSCPDTEFVFKGDDDVFVNTHHILNYLNSLSKTKAKDLFIGDVIHNAGPHRDKKLKYYIPEVVYSGLYPPYAGGGGFLYSGHLALRLYHITDQVHLYPIDDVYTGMCLQKLGLVPEKHKGFRTFDIEEKNKNNICSYVDLMLVHSRKPQEMIDIWSQLQSAHLKC",binds,binds,binds,–,–,–
"C-terminal FLAG tagged B3GNT2 (enzyme, human, UniProt Q9NY97 1-397, looked up, Bait of the co-IP; pulled down with mouse anti-FLAG (Millipore Sigma F3165) from cell lysate; also called C-FLAG B3GNT2; C-term flag; not shown: C-terminal FLAG tag) MSVGRRRIKLLGILMMANVFIYFIMEVSKSSSQEKNGKGEVIIPKEKFWKISTPPEAYWNREQEKLNRQYNPILSMLTNQTGEAGRLSNISHLNYCEPDLRVTSVVTGFNNLPDRFKDFLLYLRCRNYSLLIDQPDKCAKKPFLLLAIKSLTPHFARRQAIRESWGQESNAGNQTVVRVFLLGQTPPEDNHPDLSDMLKFESEKHQDILMWNYRDTFFNLSLKEVLFLRWVSTSCPDTEFVFKGDDDVFVNTHHILNYLNSLSKTKAKDLFIGDVIHNAGPHRDKKLKYYIPEVVYSGLYPPYAGGGGFLYSGHLALRLYHITDQVHLYPIDDVYTGMCLQKLGLVPEKHKGFRTFDIEEKNKNNICSYVDLMLVHSRKPQEMIDIWSQLQSAHLKC",–,–,–,0,2,0

# From US20240261333A1 (published 2024)
